According to PMC5578738:
Blank lines part the entries; values can stand above or below the substance they belong to.

Assays:
[1] = target: Side-VI (CG34114) complete ectodomain, biotinylated (SPR) (Drosophila melanogaster) (UniProt Q0KI85); experiment: SPR; Biacore T100; biotinylated Side-VI captured on an SA chip, Beat-Va or Beat-Vb flowed over; HBSp+ with 500 mM NaCl and 15% glycerol; equilibrium responses fitted to a Langmuir isotherm
[2] = target: Beat-Ic complete ectodomain, biotinylated (SPR) (Drosophila melanogaster) (UniProt Q7JUP9); experiment: SPR; Biacore 3000; biotinylated Beat-VI or Beat-Ic captured on an SA chip, Side-II or Side-III fragments flowed over; HBSp+ and 1% (w/v) BSA; equilibrium fit, three titration series
[3] = target: Beat-VI complete ectodomain, biotinylated (SPR) (Drosophila melanogaster) (UniProt Q9VAV8); experiment: as above
Sequence of Beat-VI complete ectodomain, biotinylated (SPR) (Drosophila melanogaster) (Q9VAV8 entry or part of it): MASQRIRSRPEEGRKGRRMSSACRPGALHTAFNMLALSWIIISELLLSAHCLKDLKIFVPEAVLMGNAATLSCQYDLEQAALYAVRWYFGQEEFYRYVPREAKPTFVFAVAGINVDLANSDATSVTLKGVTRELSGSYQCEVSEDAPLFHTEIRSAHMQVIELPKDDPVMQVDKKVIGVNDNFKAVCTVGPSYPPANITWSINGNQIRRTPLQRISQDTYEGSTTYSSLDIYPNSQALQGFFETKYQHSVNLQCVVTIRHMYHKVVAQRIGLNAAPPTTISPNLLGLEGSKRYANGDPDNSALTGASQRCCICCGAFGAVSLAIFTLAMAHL

Sequence of Side-VI (CG34114) complete ectodomain, biotinylated (SPR) (Drosophila melanogaster) (Q0KI85 entry or part of it): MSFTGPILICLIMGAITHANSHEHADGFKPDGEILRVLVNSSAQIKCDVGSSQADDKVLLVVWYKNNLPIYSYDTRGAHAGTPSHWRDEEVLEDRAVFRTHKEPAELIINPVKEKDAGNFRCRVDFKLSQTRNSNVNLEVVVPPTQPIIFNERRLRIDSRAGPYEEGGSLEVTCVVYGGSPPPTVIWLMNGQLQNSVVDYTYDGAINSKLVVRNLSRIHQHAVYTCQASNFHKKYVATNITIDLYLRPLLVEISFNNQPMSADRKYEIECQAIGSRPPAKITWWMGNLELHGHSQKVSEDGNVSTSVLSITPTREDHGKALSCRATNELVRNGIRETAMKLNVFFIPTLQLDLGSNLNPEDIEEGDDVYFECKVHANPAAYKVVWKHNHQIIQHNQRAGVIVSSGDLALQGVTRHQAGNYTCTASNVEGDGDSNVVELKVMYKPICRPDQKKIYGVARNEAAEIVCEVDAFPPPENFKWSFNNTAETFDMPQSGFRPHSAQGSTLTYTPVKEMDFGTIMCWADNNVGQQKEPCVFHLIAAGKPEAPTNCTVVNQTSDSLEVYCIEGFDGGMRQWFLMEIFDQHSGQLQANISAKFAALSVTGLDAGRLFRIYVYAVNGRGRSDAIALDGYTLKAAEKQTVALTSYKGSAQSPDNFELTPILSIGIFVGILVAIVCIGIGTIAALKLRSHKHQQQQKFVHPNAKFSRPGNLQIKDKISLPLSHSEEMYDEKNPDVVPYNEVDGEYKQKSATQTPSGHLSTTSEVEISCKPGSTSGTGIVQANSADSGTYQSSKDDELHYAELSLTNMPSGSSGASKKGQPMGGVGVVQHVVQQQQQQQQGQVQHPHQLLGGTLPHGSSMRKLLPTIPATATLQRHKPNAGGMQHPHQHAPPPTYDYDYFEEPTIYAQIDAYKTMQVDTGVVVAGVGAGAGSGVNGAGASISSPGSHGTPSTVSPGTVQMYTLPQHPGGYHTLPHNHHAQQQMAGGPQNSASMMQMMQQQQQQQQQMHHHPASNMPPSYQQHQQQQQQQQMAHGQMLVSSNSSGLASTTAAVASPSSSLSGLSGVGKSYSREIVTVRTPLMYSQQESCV
Sequence of Beat-Ic complete ectodomain, biotinylated (SPR) (Drosophila melanogaster) (Q7JUP9 entry or part of it): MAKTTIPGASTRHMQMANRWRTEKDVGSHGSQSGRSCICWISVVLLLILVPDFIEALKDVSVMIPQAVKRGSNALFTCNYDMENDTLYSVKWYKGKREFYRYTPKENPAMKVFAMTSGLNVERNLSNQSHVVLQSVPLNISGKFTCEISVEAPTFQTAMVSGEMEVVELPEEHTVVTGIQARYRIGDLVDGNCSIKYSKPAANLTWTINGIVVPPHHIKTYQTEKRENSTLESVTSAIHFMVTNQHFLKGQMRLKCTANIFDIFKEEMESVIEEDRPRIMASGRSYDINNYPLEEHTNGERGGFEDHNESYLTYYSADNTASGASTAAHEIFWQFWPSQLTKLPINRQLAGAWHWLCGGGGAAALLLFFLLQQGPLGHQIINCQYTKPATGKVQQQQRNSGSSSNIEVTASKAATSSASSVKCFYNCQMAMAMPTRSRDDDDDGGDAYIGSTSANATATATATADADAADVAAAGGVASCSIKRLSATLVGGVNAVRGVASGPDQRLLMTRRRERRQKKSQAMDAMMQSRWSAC

- Kd [1]: 2.3 µM
- koff [1]: > 0.5 s⁻¹
Substance: Beat-Vb complete ectodomain (SPR) (from UniProt Q9VG19 1-328) (domain or fragment)

- Kd [2]: 63.5 µM
Substance: Side-III N-terminal single IgSF domain (SPR) (domain or fragment)

- Kd [3]: 2.78 µM
Substance: Side-II N-terminal single IgSF domain (SPR) (from UniProt Q59DZ1 1-1064) (domain or fragment)
